Test results published in patent publication US20100216187A1 (published 2010).
Where a chain is given by its changes, count along the chain named.

B1: Nanobody 4C9 (VHH)
VHH: EVQLVESGGGLVQAGDSLRLSCTASERPFSTYVMGWFRRAPGKEREFVGGITWSGINAWYTDSVLGRFTISSDNAKNTVYLQMNSLKPEDTAVYYCAAASGVGRYRYELQYDYWGQGTQVTVSS
B2: Nanobody 4C3 (VHH)
VHH: EVQLVESGGGLVQAGGSLRLSCAASGRTFSSYAMAWFRQAPGEEREFVATISVSGGYTYYADSVKGRFTISRDNAKNTVYLQMNTLKPEDTAVYYCAAGDSSSWLEHMYDYWGQGTQVTVSS
B3: Nanobody 4B6 (VHH)
VHH: KVQLVESGGGLVQVGGSLRLSCVASGRTYGGNAMAWFRQAPGKEREFVAGIDWSSENTRYTDSVKGRFTISRDNAKNTMYLQMNSLKPEDTAVYYCAAGTSWGALASRLENAYSAWGQGTQVTVSS
B4: Nanobody 4B8 (VHH)
VHH: B3 VHH with K1E, V14A, V23A, R27G, G30S, T61I, N111A, A115S
B5: Nanobody 4B5 (VHH)
VHH: B3 VHH with K1E, V14A, G16D, V23A, G30S, G31R, T61I, N77S, N111A, A115S
B6: Nanobody 4B10 (VHH)
VHH: EVQLVESGGGLVQAGDSLRLSCAASGRTFSSYAMGWFRQAPGTERQFVARITGKGDSTDYADSVRGRFTISRDNAKNTVYLQMNSLKPEDTAVYYCAADAFNSLLQAGRAEYWGQGTQVTVSS
B7: Nanobody 4B1 (VHH)
VHH: EVQLVESGGGLVQPGGSLRLSCVAAGFTLDYYAIGWFRQAPGKEREGVSCITSDGRTYYADSVKGRFTISRDMAKKMVYLQMNSLKPEDTAVYYCAAGACMGGSGYEADFGSWGQGTQVTVSS
B8: Nanobody 4A6 (VHH)
VHH: B7 VHH with V23A, A25S, G26P, I51S, D54H, R56K, Y59H, M73N, K76N, M77T
B9: Nanobody 4C8 (VHH)
VHH: EVQLVESGGGLVQAGDSLRLSCAASGRTYTPYVMGWFRRAPGKEREFVGAVSWSGTNTWYTDSVKGRFTISRDNAKNTVYLQMNSLKPEDTAVYYCAAGDGVGIYRYEHQYDYWGQGTQVTVSS
B10: Nanobody 4A9 (VHH)
VHH: EVQLVESGGGLVQAGGSLRLSCEASGFTLDYSGVGWFRQAPGKERELVSCISRGGDRAGYANSVKGRFTMSRDNAKNILYLQMNSLKPEDTAVYYCAATHSGSGCYDGAIDYWGKGTLVTVSS
B11: Nanobody 4D5 (VHH)
VHH: EVQLVESGGGLVQAGGSLRLSCAASGLSFSKYAMGWFRQAPGKQREYVAVISSSDTTYYTNSAKGRFTISRDNAENTVYLQMNSLKPEDTAVYFCAADSYVTALQTLTQISYWGQGTQVTVSS
B12: Nanobody 4C11 (VHH)
VHH: B11 VHH with K31R, Y100F, S111N
B13: Nanobody 4D4 (VHH)
VHH: EVQLVESGGGLVQAGDSLRLSCAASGRTFSPYVMGWFRRAPGKEREFVGGINWSGSNTWYTDSVKGRFTISRDNVKNMVYLQMNSLKPEDTAVYYCAAGSGVGMYRYERQYDYWGQGTQVTVSS
B14: Nanobody 4C5 (VHH)
VHH: EVQLVESGGGLVQAGDSLRLSCAASGRPFSAYVMGWFRRAPGKEREFVGGINWNSANTWYTDSVLGRFTISKDNAKNTVYLQMNSLKPEDTAVYYCAAAGGVGYYRYERQYDYWGQGTQVTVSS
B15: Nanobody 4C4 (VHH)
VHH: B14 VHH with S30M, A31S, N54G, A56G, K72R, A98T, G100A
B16: Nanobody 4D7 (VHH)
VHH: B14 VHH with A31S, A56G, T61S, K72R, Y80D, A98T, G100S
B17: Nanobody 4D10 (VHH)
VHH: EVQLVESGGGLVQAGDSLRLSCTASERPFMSYVMGWFRRAPGKDREFVGAITWSGINTWYSDSVLGRFTISRDNAKNTVYLQMNSLKPEDTAVYYCAVADGVGLYRYERQYDYWGQGTQVTVSS

Biological target: T1, human serum albumin (human, UniProt P02768 25-609)
T1 construct: Bought serum albumin; also called HSA; antigen
Experiment: SPR (Biacore), ratio of the off rates at the two pH

Binder | Ratio pH 7/pH 5 (of kd)
B1 | 3.88
B2 | 3.35
B3 | 3.23
B4 | 2.43
B5 | 2.32
B6 | 0.87
B7 | 0.88
B8 | 5.77
B9 | 3.35
B10 | 0.54
B11 | 1.29
B12 | 1.19
B13 | 2.76
B14 | 2.44
B15 | 2.42
B16 | 2.42
B17 | 6.52
